Changes are numbered by the printed parent chain.
Tests used:
[1] = biological target: T1, His6CPS-6, Q95NM6
T1 chain: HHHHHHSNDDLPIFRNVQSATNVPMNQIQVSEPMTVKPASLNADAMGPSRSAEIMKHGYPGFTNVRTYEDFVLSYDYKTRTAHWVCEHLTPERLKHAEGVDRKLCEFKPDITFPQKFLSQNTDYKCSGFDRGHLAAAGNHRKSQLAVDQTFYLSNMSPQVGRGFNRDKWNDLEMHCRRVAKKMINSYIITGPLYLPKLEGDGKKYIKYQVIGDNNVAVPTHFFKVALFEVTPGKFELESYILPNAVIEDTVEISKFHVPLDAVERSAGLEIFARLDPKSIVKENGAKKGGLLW

[2] = biological target: T2, ^35S-Methionine labeled CRN-1, Q9N3T2
T2 chain: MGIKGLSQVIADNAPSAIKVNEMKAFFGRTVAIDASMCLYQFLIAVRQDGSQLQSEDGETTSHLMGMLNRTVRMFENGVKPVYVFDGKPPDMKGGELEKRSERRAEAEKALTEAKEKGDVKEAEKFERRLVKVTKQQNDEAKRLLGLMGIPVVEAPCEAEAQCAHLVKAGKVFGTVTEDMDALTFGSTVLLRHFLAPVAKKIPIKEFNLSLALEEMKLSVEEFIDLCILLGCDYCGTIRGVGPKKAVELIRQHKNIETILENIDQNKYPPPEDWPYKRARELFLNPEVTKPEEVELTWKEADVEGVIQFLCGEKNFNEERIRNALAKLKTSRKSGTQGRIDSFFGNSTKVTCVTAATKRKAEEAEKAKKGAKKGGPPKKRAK

B1: CRN-1(DY-AA) (protein)
chain: T2 chain with D233A, Y234A
With B1 the “CPS-6 nuclease activity (plasmid cleavage assay)” value [1] was “continuing enhancement of CPS-6 nuclease activity, though less potently than the wild type CRN-1 protein”.

B2: full-length ^35S-methionine labeled CPS-6 (protein)
chain: MIGKVAGTAAIAGISFLAGKYSNDDLPIFRNVQSATNVPMNQIQVSEPMTVKPASLNADAMGPSRSAEIMKHGYPGFTNVRTYEDFVLSYDYKTRTAHWVCEHLTPERLKHAEGVDRKLCEFKPDITFPQKFLSQNTDYKCSGFDRGHLAAAGNHRKSQLAVDQTFYLSNMSPQVGRGFNRDKWNDLEMHCRRVAKKMINSYIITGPLYLPKLEGDGKKYIKYQVIGDNNVAVPTHFFKVALFEVTPGKFELESYILPNAVIEDTVEISKFHVPLDAVERSAGLEIFARLDPKSIVKENGAKKGGLLW
B2 was tested, and the “gap-dependent endonuclease activity of CRN-1” value [2] was “it enhanced the gap-dependent endonuclease activity of CRN-1 by more than 200%”.

B3: CRN-1-His6 (protein)
chain: MGIKGLSQVIADNAPSAIKVNEMKAFFGRTVAIDASMCLYQFLIAVRQDGSQLQSEDGETTSHLMGMLNRTVRMFENGVKPVYVFDGKPPDMKGGELEKRSERRAEAEKALTEAKEKGDVKEAEKFERRLVKVTKQQNDEAKRLLGLMGIPVVEAPCEAEAQCAHLVKAGKVFGTVTEDMDALTFGSTVLLRHFLAPVAKKIPIKEFNLSLALEEMKLSVEEFIDLCILLGCDYCGTIRGVGPKKAVELIRQHKNIETILENIDQNKYPPPEDWPYKRARELFLNPEVTKPEEVELTWKEADVEGVIQFLCGEKNFNEERIRNALAKLKTSRKSGTQGRIDSFFGNSTKVTCVTAATKRKAEEAEKAKKGAKKGGPPKKRAKHHHHHH
For B3, the “nuclease activity (plasmid cleavage assay)” value [1] was “complete plasmid degradation and approximately 500% increase in nuclease activity”.

Reference: patent US20050142568
